In US20160311919A1:

Columns and labels:
[1] = target: GPNMB-V5His (recombinant human GPNMB extracellular domain with C-terminal V5-His tag) (human) (UniProt Q14956); test: ELISA, coated GPNMB, Ab 111 ng/mL
[2] = target: GPNMB-V5His (recombinant human GPNMB extracellular domain with C-terminal V5-His tag) (human) (UniProt Q14956); test: ELISA, coated GPNMB, Ab 3 ug/mL
[3] = target: GPNMB-V5His (recombinant human GPNMB extracellular domain with C-terminal V5-His tag) (human) (UniProt Q14956); test: ELISA, coated GPNMB, Ab 333 ng/mL
[4] = target: GPNMB-V5His (recombinant human GPNMB extracellular domain with C-terminal V5-His tag) (human) (UniProt Q14956); test: ELISA, coated GPNMB, Ab 37 ng/mL
[5] = target: GPNMB-V5His (recombinant human GPNMB extracellular domain with C-terminal V5-His tag) (human) (UniProt Q14956); test: ELISA, coated GPNMB, Ab 12.3 ng/mL
[6] = target: GPNMB-V5His (recombinant human GPNMB extracellular domain with C-terminal V5-His tag) (human) (UniProt Q14956); test: ELISA, coated GPNMB, Ab 1 ug/mL
[7] = target: GPNMB-V5His (recombinant human GPNMB extracellular domain with C-terminal V5-His tag) (human) (UniProt Q14956); test: SPR (Biacore), mAb on protein A, GPNMB 880 nM

Binder	Avg OD [1] [OD]	Avg OD [2] [OD]	Avg OD [3] [OD]	Avg OD [4] [OD]	Avg OD [5] [OD]	Avg OD [6] [OD]	Kd [7] [nM]	koff [7] [s⁻¹]	kon [7] [M⁻¹ s⁻¹]
2-22 (hybridoma of Table 6) (antibody, V domains shown) VH: QVQLEQSGPGLVKPSQNLSLTCTVSGGSISSGGYFWSWIRQHPGKGLEWIGYIYYSGNTYYNPSLKSRVTISVDTSKNQFSLKLSSVTAADTAVYYCARDYYYDTSGFSYRYDWYYGMDVWGQGTTVTVSS VL: DIQLTQSPSSLSASVGDRVTITCRASQGIRNDLGWYQQKPGKAPKRLIYAASSLQNGVPSRFSGSGSGTEFTLTISSLQPEDFATYYCLQHNTYPAFGQGTKVEIKR	0.355	0.714	0.538	0.171	0.068	0.707			
1.7.3 (antibody, V domains shown) VH: QVQLQESGPGLVKPSQTLSLTCTVSGGSISSANYYWTWIRQHPGKGLEWIGYIYYSGSTYCNPSLKSRVIISVDTSKNQFSLKLSSVTAADTAVYYCARGYNWNYFDYWGQGTLVTVSS VL: DIVMTQSPATLSVSPGERATLSCRASQSVSSNLAWYQERPGQAPRLLIYGASTRATGIPARFSGSGSGTEFTLTISSLQSEDFAVYYCQQYNKWPPWTFGQGTKVEIER	0.451	1	0.76	0.239	0.094	0.871	121	0.00117	9650
2-17 (hybridoma of Table 6) (antibody, V domains shown) VH: QLVQSGAEVKKPGASVKVSCKASGYTFTGFYMHWVRQTPGQGLEWMGWINPNSGGTYYVQKFQGRVTMTRDTSISTVYMELSRLRSDDTAVYYCARDGYSSGEDWFDPWGQGTLVTVSS VL: DIVMTQTPLSLSVTPGQPASISCKSSQSLLHSGGKTYLYWYLQRPGQPPQLLIYEVSNRFSGVPDRFSGSGSGTDFTLKISRVEAEDVGVYYCMQSIHLPLTFGGGTKVEIKR	0.009	0.053	0.01	0.008	0.011	0.019			
2-7 (hybridoma of Table 6) (antibody, V domains shown) VH: QVQLEQSGGGVVQPGRSLRLSCAASGFTFNNYGMHWVRQAPGKGLEWVAVIWYDGSNKYYADSVKGRFTISRDNSKNTLYLQMNSLRAEDTAVYYCAKDEEYYYVSGLDYWGQGTLVTVSS VL: LTQSPSSLSASVRDRVTITCRASQDISNYLAWYQQKPGKVPNLLIYAASTLQSGVPSRFSGSGSGTDFTLTISSLQPEDVATYYCQKYNSAPLTFGGGTKVEIKR	0.494	0.827	0.68	0.308	0.156	0.719			
2-15 (hybridoma of Table 6) (antibody, V domains shown) VH: QVQLVESGGGVVQPGRSLRLSCAASGFTFSNYGIHWVRQAPGKGLEWVAVIWFDGRNKYYADSVKGRFTISRDNSKNTLYLQMNSLRAEDAAVYYCARDPFDYGDSFFDYWGQGTLVTVSS VL: LTQSPSSLSASVRDRVTITCRASQDISNYLAWYQQKPGKVPNLLIYAASTLQSGVPSRFSGSGSGTDFTLTISSLQPEDVATYYCQKYNSAPLTFGGGTKVEIKR	0.395	0.601	0.578	0.246	0.127	0.568			
2-16 (hybridoma of Table 6) (antibody, V domains shown) VH: QVQLVESGGGLVKPGGSLRLSCAASGFTFSDYYMTWIRQAPGKGLEWVSYISISGSITHYADSVKGRFTMSRDNAKNSLYLQMNSLRAEDTAVYYCARDGAAAGTDAFDIWGHGTKVTVSS VL: EIVMTQSPATLSVSPGDRATLSCRASQNVSSNLAWYQQKPGQAPRLLIFGASTRATGIPARFSGSGSGTEFTLTISSLQSEDFAVYYCQQYHYWPTFGPGTKVDIKR	0.032	0.359	0.068	0.017	0.011	0.173			

The next lines start with the values.

Avg OD [1] [OD]	Avg OD [2] [OD]	Avg OD [3] [OD]	Avg OD [4] [OD]	Avg OD [5] [OD]	Avg OD [6] [OD]	Kd [7] [nM]	koff [7] [s⁻¹]	kon [7] [M⁻¹ s⁻¹]	Binder
						118	0.000466	3960	Mab1.10.2 (antibody, human IgG2, V domains shown) VH: QVQLQESGPGLVKPSETLSLTCTVSGDSISNYYWSWIRQPPGKGLEWIGYFYYSGSTNYNPSLKSRVTISVDTSKNQFSLKLSSVTAADTAVYYCARDRGWADYWGQGTLVTVSS VL: EIVLTQSPGTLSLSPGERATLSCRTSQSISSSYLAWYQQKPGQVPRLLIYGASSRATGIPDRFSGSGSGTDFTLTISRLEPEDFAVYYCQQYGSSITFGQGTRLEIKR
						209	0.000885	4240	GPNMB antibody (1.10.1) (antibody, V domains shown) VH: QVQLQESGPGLVKPSETLSLTCTVSGDSISNYYWSWIRQPPGKGLEWIGYFYYSGSTNYNPSLKSRVTISVDTSKNQFSLKLSSVTAADTAVYYCARDRGWADYWGQGTLVTVSS VL: EIVLTQSPGTLSLSPGERATLSCRTSQSISSSYLAWYQQKPGQVPRLLIYGASSRATGIPDRFSGSGSGTDFTLTISRLEPEDFAVYYCQQYGSSITFGQGTRLEIKR
						122	0.00144	11800	Mab1.7.1 (antibody, human IgG2, V domains shown) VH: QVQLQESGPGLVKPSQTLSLTCTVSGGSISSANYYWTWIRQHPGKGLEWIGYIYYSGSTYCNPSLKSRVIISVDTSKNQFSLKLSSVTAADTAVYYCARGYNWNYFDYWGQGTLVTVSS VL: DIVMTQSPATLSVSPGERATLSCRASQSVSSNLAWYQERPGQAPRLLIYGASTRATGIPARFSGSGSGTEFTLTISSLQSEDFAVYYCQQYNKWPPWTFGQGTKVEIER
0.199	0.763	0.356	0.094	0.049	0.499	96	0.00089	9260	Mab1.2.2 (antibody, human IgG2, V domains shown) VH: ITLKESGPTLVKPTQTLTLTCTFSGFSLSAGGVGVGWIRQPPGKALEWLALIYWNDDKRYSPSLRSRLTITKDTSKNQVVLTITNMDPVDTATYYCAHSHYDYDWGSYFDYWGQGTLVTVSS VL: DIVMTQTPLSLPVTPGEPASISCRSSQSLLDSDDGNTYLDWYLQKPGQSPQLLIYTLSYRASGVPDRFSGSGSGTDFTLNISRVEAEDVGVYYCMQRIEFPITFGQGTRLEIKR
